# B1: Vps4^E233Q (full-length yeast Vps4 containing an mutation) [Saccharomyces cerevisiae] / itself (parent)
# chain: MSTGDFLTKGIELVQKAIDLDTATQYEEAYTAYYNGLDYLMLALKYEKNPKSKDLIRAKFTEYLNRAEQLKKHLESEEANAAKKSPSAGSGSNGGNKKISQEEGEDNGGEDNKKLRGALSSAILSEKPNVKWEDVAGLEGAKEALKEAVILPVKFPHLFKGNRKPTSGILLYGPPGTGKSYLAKAVATEANSTFFSVSSSDLVSKWMGESEKLVKQLFAMARENKPSIIFIDQVDALTGTRGEGESEASRRIKTELLVQMNGVGNDSQGVLVLGATNIPWQLDSAIRRRFERRIYIPLPDLAARTTMFEINVGDTPCVLTKEDYRTLGAMTEGYSGSDIAVVVKDALMQPIRKIQSATHFKDVSTEDDETRKLTPCSPGDDGAIEMSWTDIEADELKEPDLTIKDFLKAIKSTRPTVNEDDLLKQEQFTRDFGQEGN
# Variants of: B1
# Experiment: SEC
# Conditions: with itself; height of the peak at the hexamer elution position (~12 ml); read off a plot
row,Variant,response [mAU]
1,MSTGDFLTKGIELVQKAIDLDTATQYEEAYTAYYNGLDYLMLALKYEKNPKSKDLIRAKFTEYLNRAEQLKKHLESEEANAAKKSPSAGSGSNGGNKKISQEEGEDNGGEDNKKLRGALSSAILSEKPNVKWEDVAGLEGAKEALKEAVILPVKFPHLFKGNRKPTSGILLYGPPGTGKSYLAKAVATEANSTFFSVSSSDLVSKWMGESEKLVKQLFAMARENKPSIIFIDQVDALTGTRGEGESEASRRIKTELLVQMNGVGNDSQGVLVLGATNIPWQLDSAIRRAFERRIYIPLPDLAARTTMFEINVGDTPCVLTKEDYRTLGAMTEGYSGSDIAVVVKDALMQPIRKIQSATHFKDVSTEDDETRKLTPCSPGDDGAIEMSWTDIEADELKEPDLTIKDFLKAIKSTRPTVNEDDLLKQEQFTRDFGQEGN [chain 1 R289A],13

# Same assay, conditions: with itself; in the presence of ATP; height of the broad peak at the hexamer elution position (~11.5-12 ml); read off a plot
row,Variant,response [mAU]
1,MSTGDFLTKGIELVQKAIDLDTATQYEEAYTAYYNGLDYLMLALKYEKNPKSKDLIRAKFTEYLNRAEQLKKHLESEEANAAKKSPSAGSGSNGGNKKISQEEGEDNGGEDNKKLRGALSSAILSEKPNVKWEDVAGLEGAKEALKEAVILPVKFPHLFKGNRKPTSGILLYGPPGTGKSYLAKAVATEANSTFFSVSSSDLVSKWMGESEKLVKQLFAMARENKPSIIFIDQVDALTGTRGEGESAASRRIKTELLVQMNGVGNDSQGVLVLGATNIPWQLDSAIRRRFERRIYIPLPDLAARTTMFEINVGDTPCVLTKEDYRTLGAMTEGYSGSDIAVVVKDALMQPIRKIQSATHFKDVSTEDDETRKLTPCSPGDDGAIEMSWTDIEADELKEPDLTIKDFLKAIKSTRPTVNEDDLLKQEQFTRDFGQEGN [chain 1 E247A],72

# Same assay, conditions: with itself; in the presence of ATP; height of the broad peak at the hexamer elution position (~12 ml); read off a plot
row,Variant,response [mAU]
1,MSTGDFLTKGIELVQKAIDLDTATQYEEAYTAYYNGLDYLMLALKYEKNPKSKDLIRAKFTEYLNRAEQLKKHLESEEANAAKKSPSAGSGSNGGNKKISQEEGEDNGGEDNKKLRGALSSAILSEKPNVKWEDVAGLEGAKEALKEAVILPVAAPHLFKGNRKPTSGILLYGPPGTGKSYLAKAVATEANSTFFSVSSSDLVSKWMGESEKLVKQLFAMARENKPSIIFIDQVDALTGTRGEGESEASRRIKTELLVQMNGVGNDSQGVLVLGATNIPWQLDSAIRRRFERRIYIPLPDLAARTTMFEINVGDTPCVLTKEDYRTLGAMTEGYSGSDIAVVVKDALMQPIRKIQSATHFKDVSTEDDETRKLTPCSPGDDGAIEMSWTDIEADELKEPDLTIKDFLKAIKSTRPTVNEDDLLKQEQFTRDFGQEGN [chain 1 K154A F155A],44

# Same assay, conditions: with itself; in the presence of ATP; height of the peak at the hexamer elution position (~12 ml); read off a plot
row,Variant,response [mAU]
1,MSTGDFLTKGIELVQKAIDLDTATQYEEAYTAYYNGLDYLMLALKYEKNPKSKDLIRAKFTEYLNRAEQLKKHLESEEANAAKKSPSAGSGSNGGNKKISQEEGEDNGGEDNKKLRGALSSAILSEKPNVKWEDVAGLEGAKEALKEAVILPVKFPHLFKGNRKPTSGILLYGPPGTGKSYLAKAVATEANSTFFSVSSSDLVSKWMGESEKLVAQLFAMARENKPSIIFIDQVDALTGTRGEGESEASRRIKTELLVQMNGVGNDSQGVLVLGATNIPWQLDSAIRRRFERRIYIPLPDLAARTTMFEINVGDTPCVLTKEDYRTLGAMTEGYSGSDIAVVVKDALMQPIRKIQSATHFKDVSTEDDETRKLTPCSPGDDGAIEMSWTDIEADELKEPDLTIKDFLKAIKSTRPTVNEDDLLKQEQFTRDFGQEGN [chain 1 K215A],88
2,MSTGDFLTKGIELVQKAIDLDTATQYEEAYTAYYNGLDYLMLALKYEKNPKSKDLIRAKFTEYLNRAEQLKKHLESEEANAAKKSPSAGSGSNGGNKKISQEEGEDNGGEDNKKLRGALSSAILSEKPNVKWEDVAGLEGAKEALKEAVILPVKFPHLFKGNRKPTSGILLYGPPGTGKSYLAKAVATEANSTFFSVSSSDLVSKWMGESEKLVKQLFAMARENKPSIIFIDQVDALTGTRGEGESEASRRIKTELLVQMNGVGNDSQGVLVLGATNIPWQLDSAIRRRFERRIYIPLPDLAARTTMFEINVGDTPCVLTKEDYRTLGAMTEGYSGSDIAVVVKDALMQPIRKIQSATHFKDVSTEDDETRKLTPCSPGDDGAIEMSWTDIEADEAKEPDLTIKDFLKAIKSTRPTVNEDDLLKQEQFTRDFGQEGN [chain 1 L396A],65

# Same assay, conditions: with itself; in the presence of ATP; height of the peak at the hexamer elution position (~12.5 ml); read off a plot
row,Variant,response [mAU]
1,MSTGDFLTKGIELVQKAIDLDTATQYEEAYTAYYNGLDYLMLALKYEKNPKSKDLIRAKFTEYLNRAEQLKKHLESEEANAAKKSPSAGSGSNGGNKKISQEEGEDNGGEDNKKLRGALSSAILSEKPNVKWEDVAGLEGAKEALKEAVILPVKFPHLFKGNRKPTSGILLYGPPGTGKSYLAKAVATEANSTFFSVSSSDLVSKWMGESEKLVKQLFAMARENKPSIIFIDQVDALTGTRGEGESEASRRIKTELLVQMNGVGNDSQGVLVLGATNIPWQLDSAIRRRFERRIYIPLPDLAARTTMFEINVGDTPCVLTKEDYRTLGAMTEGYSGSDIAVVVKDALMQPIRKIQSATHFKDVSTEDDETRKLTPCSPGDDGAIEMSWTDIEADELKEPDLTIKDFLKAIKSTRPTVNEDDLLKQEQFTRAFGQEGN [chain 1 D431A],42

# Reference: PMC5520056, “Cryo-EM structures of the ATP-bound Vps4^E233Q hexamer and its complex with Vta1 at near-atomic resolution” (Nature Communications, 2017)
